Laboratory results: paper PMC5145889, “Differential CCR7 Targeting in Dendritic Cells by Three Naturally Occurring CC-Chemokines” (Frontiers in Immunology, 2016)

T1: human CCR7, wild type, untagged (human, UniProt P32248 25-378)
T1 sequence (looked up): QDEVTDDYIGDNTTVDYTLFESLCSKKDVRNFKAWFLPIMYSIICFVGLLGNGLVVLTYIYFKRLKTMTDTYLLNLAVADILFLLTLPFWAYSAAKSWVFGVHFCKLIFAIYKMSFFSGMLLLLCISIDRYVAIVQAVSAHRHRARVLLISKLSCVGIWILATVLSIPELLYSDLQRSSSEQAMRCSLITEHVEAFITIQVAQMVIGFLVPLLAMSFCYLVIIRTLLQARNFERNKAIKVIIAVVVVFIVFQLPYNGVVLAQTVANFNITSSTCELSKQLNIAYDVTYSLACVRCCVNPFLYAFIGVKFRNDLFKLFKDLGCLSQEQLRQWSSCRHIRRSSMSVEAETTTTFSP

T2: CCR7 E193A (human, UniProt P32248 25-378, E193A)
T2 sequence (looked up): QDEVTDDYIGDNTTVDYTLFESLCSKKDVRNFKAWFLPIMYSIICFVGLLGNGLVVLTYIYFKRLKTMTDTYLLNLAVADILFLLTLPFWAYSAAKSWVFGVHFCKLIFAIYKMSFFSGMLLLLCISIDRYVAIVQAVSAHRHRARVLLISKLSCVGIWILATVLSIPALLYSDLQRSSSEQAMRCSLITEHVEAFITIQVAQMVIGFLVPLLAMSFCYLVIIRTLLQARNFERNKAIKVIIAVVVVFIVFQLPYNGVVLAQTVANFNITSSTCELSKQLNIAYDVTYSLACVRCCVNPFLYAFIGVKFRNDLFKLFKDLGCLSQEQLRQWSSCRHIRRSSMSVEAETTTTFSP

T3: CCR7 K137A (human, UniProt P32248 25-378, K137A)
T3 sequence (looked up): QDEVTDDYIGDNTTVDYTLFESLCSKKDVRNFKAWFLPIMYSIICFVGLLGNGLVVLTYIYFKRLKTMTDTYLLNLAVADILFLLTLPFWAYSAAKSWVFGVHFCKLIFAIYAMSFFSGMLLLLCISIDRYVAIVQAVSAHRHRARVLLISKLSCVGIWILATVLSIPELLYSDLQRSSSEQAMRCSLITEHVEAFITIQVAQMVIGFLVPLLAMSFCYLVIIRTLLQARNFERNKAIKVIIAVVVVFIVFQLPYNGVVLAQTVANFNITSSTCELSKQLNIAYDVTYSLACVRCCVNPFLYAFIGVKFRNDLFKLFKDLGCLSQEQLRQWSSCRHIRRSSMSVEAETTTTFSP

T4: CCR7 F133A (human, UniProt P32248 25-378, F133A)
T4 sequence (looked up): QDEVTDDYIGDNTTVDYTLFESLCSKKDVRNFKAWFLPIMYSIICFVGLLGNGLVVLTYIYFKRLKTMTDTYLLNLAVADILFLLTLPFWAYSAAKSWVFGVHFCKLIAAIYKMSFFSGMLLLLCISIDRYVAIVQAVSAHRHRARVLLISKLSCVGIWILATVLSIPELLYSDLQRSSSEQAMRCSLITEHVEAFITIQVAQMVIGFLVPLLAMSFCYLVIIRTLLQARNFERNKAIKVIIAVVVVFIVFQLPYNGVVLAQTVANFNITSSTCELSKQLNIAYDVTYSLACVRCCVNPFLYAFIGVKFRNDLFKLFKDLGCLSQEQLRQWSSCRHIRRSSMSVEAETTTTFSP

T5: CCR7 Y312A (human, UniProt P32248 25-378, Y312A)
T5 sequence (looked up): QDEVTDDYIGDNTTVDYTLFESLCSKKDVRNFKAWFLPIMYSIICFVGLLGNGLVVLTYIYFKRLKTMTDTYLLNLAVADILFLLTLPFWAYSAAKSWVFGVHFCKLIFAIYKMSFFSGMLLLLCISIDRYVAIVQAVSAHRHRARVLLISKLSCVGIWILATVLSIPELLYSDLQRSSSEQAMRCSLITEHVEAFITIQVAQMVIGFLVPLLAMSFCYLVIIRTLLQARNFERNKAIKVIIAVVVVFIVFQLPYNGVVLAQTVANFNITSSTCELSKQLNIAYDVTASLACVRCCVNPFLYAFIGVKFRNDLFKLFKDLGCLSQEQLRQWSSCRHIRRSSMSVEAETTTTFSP

T6: CCR7 fused with the ProLink (PK) 1-tag (human, UniProt P32248 25-378)
T6 sequence (looked up): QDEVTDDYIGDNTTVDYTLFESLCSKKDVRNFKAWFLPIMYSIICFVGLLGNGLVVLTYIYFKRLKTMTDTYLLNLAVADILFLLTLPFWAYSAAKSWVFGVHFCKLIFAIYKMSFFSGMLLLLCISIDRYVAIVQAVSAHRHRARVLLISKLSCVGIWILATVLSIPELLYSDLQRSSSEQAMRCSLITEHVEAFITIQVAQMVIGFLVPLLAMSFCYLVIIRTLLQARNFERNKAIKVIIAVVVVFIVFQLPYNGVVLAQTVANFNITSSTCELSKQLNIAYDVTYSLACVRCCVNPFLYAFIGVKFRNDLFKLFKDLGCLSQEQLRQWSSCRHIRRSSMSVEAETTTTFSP


Legend:
[1] = biological target: human CCR7, wild type, untagged (human) (UniProt P32248)
[2] = biological target: human CCR7, wild type, untagged (human) (UniProt P32248); remark: listed apart in the source
[3] = biological target: CCR7 fused with the ProLink (PK) 1-tag (human) (UniProt P32248)
CCR7 Y312A (human) = CCR7 Y312A (human) (UniProt P32248)
[4] = biological target: human CCR7, wild type, untagged (human) (UniProt P32248); remark: listed apart in the source
[5] = biological target: T1, human CCR7, wild type, untagged; test: cell-based or functional assay
[6] = biological target: T1, human CCR7, wild type, untagged; test: cell-based or functional assay; remark: listed apart in the source
CCR7 E193A = biological target: T2, CCR7 E193A; test: cell-based or functional assay
CCR7 K137A = biological target: T3, CCR7 K137A; test: cell-based or functional assay
CCR7 F133A = biological target: T4, CCR7 F133A; test: cell-based or functional assay
CCR7 Y312A = biological target: T5, CCR7 Y312A; test: cell-based or functional assay
[7] = biological target: T6, CCR7 fused with the ProLink (PK) 1-tag; test: cell-based or functional assay

human chemokine CCL19, sequence (Q99731 22-98): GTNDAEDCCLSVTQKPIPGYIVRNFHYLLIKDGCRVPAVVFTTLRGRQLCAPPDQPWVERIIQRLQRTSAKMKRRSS

Row | EC50 of PI-turnover (Gαi signalling read through Gqi4myr) in HEK293 cells transfected with CCR7 [1] [nM] | EC50 of β-arrestin 2-dependent CCR7 internalization (U2OS cells, 3 h) [2] [nM] | EC50 of β-arrestin 2 recruitment to CCR7 (PathHunter, U2OS cells) [3] [nM] | EC50 of PI-turnover in HEK293 cells (CCR7 Y312A (human)) [nM] | EC50 of PI-turnover (Gαi signalling read through Gqi4myr) in HEK293 cells transfected with CCR7 [5] [nM] | percentage activation of CCR7 (G-protein signaling) relative to CCL19 [6] | percentage activation of CCR7 (G-protein signaling) relative to CCL19 (CCR7 E193A) | percentage activation of CCR7 (G-protein signaling) relative to CCL19 (CCR7 K137A) | percentage activation of CCR7 (G-protein signaling) relative to CCL19 (CCR7 F133A) | EC50 of β-arrestin 2-dependent CCR7 internalization (U2OS cells, 3 h) [5] [nM] | EC50 of PI-turnover in HEK293 cells (CCR7 Y312A) [nM] | EC50 of β-arrestin 2 recruitment to CCR7 (PathHunter, U2OS cells) [7] [nM] | Molecule | EC50 of PI-turnover in HEK293 cells (mutagenesis series, wild type) [4] [nM] | EC50 of PI-turnover in HEK293 cells (mutagenesis series, wild type) [5] [nM]
1 | 5 | 4.1 | 15 | 7.8 |  |  |  |  |  |  |  |  | human chemokine CCL19 (from UniProt Q99731 22-98) (ligand) | 5.4 | 
2 |  |  |  |  | ~142 | 42.7 % relative to CCL19 | 17.5 % relative to CCL19 | 16.7 % relative to CCL19 | 27.1 % relative to CCL19 |  |  |  | tailless-CCL21 (ligand, human) SDGGAQDCCLKYSQRKIPAKVVRSYRKQEPSLGCSIPAILFLPRKRSQAELCADPKELWVQQLMQHLDKTPSPQKPAQG |  | 
3 |  |  |  |  | ~50 | 57 % relative to CCL19 | 19.3 % relative to CCL19 | 16 % relative to CCL19 | 28.7 % relative to CCL19 | ~152 | ~77 | ~263 | human chemokine CCL21 (full-length CCL21) (ligand, UniProt O00585 24-134, looked up) SDGGAQDCCLKYSQRKIPAKVVRSYRKQEPSLGCSIPAILFLPRKRSQAELCADPKELWVQQLMQHLDKTPSPQKPAQGCRKDRGASKTGKKGKGSKGCKRTERSQTPKGP |  | ~156
